Measurements published in article PMC3808164.

Experiments:
Assay in all cases: co-IP
[1] = biological target: GFP-tagged VP1/2 regions 6 and 7 (deletion of regions 1–5) (pseudorabies virus (PRV))
[2] = biological target: GFP-tagged VP1/2 with a single deletion of regions 1–4 (C terminus intact) (pseudorabies virus (PRV))
[3] = biological target: GFP-tagged VP1/2 with the region 6^S deletion combined with deletion of regions 1–4 (pseudorabies virus (PRV))
[4] = biological target: GFP-tagged VP1/2[change]^S (deletion of region 6^S in the context of full-length VP1/2) (pseudorabies virus (PRV))
[5] = biological target: GFP-VP1/2[change] (pseudorabies virus (PRV))

Row | Substance | fold decrease in binding against full-length VP1/2 [1] | fold decrease in binding against full-length VP1/2 [2] | fold decrease in binding against full-length VP1/2 [3] | fold decrease in binding against full-length VP1/2 [4] | efficiency of coimmunoprecipitation as percent of full-length GFP-VP1/2 [5]
1 | p50/dynamitin (from UniProt Q13561 1-401) (natural protein) | 11 fold | 9 fold | 23 fold | 4 fold | –
2 | p150/glued dynactin subunit (from UniProt Q14203 1-1278) (natural protein) | – | 5 fold | – | 5 fold | 79%
